Data: a protein production outcome set (Wang et al. 2014)

Experiment: label from the status in PepcDB records

Sequence	protein production
MINVEQVFALDIGTRLVMGLIMEKAPGGYHIIARAQTEHRQRAMYDGQIHDIEEVAQAVQRVKEELEEKIKGKLHYVSVAAAGRALKTAVATAQKSELIPMIWEREDIFALEMEAVQQALREIQAEDEIIPYHCVGYSTIESLLEGQNLSSLSGQRGKEAQVKVIATFLPRTVIDGLTRVISKVGLEMRELTLEPIAAGRAAIPPDMRRMNLALVDVGAGTSDIALTKSGSFFAYGMVPMAGDEITERICQHFLVDFQTGEKIKRSLNTKTKVTFTDFLGMKTTVNKEEVLEQIQPVVLELAQKLADEILRLNQGNPHAIILIGGGSQTPLLAEVLSDLLELPRNRVGIQVRERIQGVSGEKSLKGPDAITPIGIGISTIEGEGLQYFSVHVNDLTVQIFELQLATVSDALLAAGITPRLLVGRPGSALTVELNGDIKVSKGQFSKPAQFFLNGEEVKLDHELKPGDKIQFIPAQDGENAQATFADLVPAIPEKKIKVNGESVVFTAQIFCNGRPVTRDGDVPDGAKITVFQNQTLKDLLHFLNDKQYSLSEIRYKINGEERVIPIHKEFYINQQKVALERMIKDGDDLVILVKEVYIKDLQLKPTPMVFYVNGQEVEYPPQIFRILSRGRVLSDQEKVVDGMELSVEGYDTMPLLSELLPYVNIPQDVPANARLSLKRNNQEAEFTTPLIPGDRIEIHWEQVASALLEHHHHHH	not failed
MINYNKTQHLIESMVFERVVPGVNYAFIKNKQIFTSTTGFASIYPEVTQLSPFAEYDLASLTKVLATENVLLKLYDQGELNFTEPLKEFIPTFKDPKVRLYHLLTHTSGIRGWIPHRDELSHDELLNALINLPVTDEFEHKMRYADTNFILLGLVIKSIFGASVQEVATKEIFDQMPLINTTFTPNKSECVPTAIINDQVLQGIPHDPKARQLGLDCGSAGLFSNMRDLITFSQGYLGLKRNVLPYSQDTVSELFDDKTPKGVKPRSWGWDIRFDPKYHYPIILHTGFTGTLIILDRLKKSGLILLTNRVHPTGHNTIFLAMREKIIRSFLNENSKI	failed
MINYPNLPNSALEITEQPEVKEITNELLKQLQNALNSNSLFSEQVELSLKGIVRILEVLLSLDFFKNANEIDSSLRNSIEWLNNAGESLKTKMKEYEGFFSDFNTSMRTNEQEVSATLNANTENIKSEIKKLENQLIETTTRLLTSYQIFLNNARDSANNQITANKTESLEALNQAKTSANNEITANQTQALTNINEAKENANNQITENKTQAITNINEARESATTQITTNKQEVLNSITQEKNQATSEITEAKKSAFNELLETLKPKFSGLFAGAYYIRNVIIFKADGRRKSRI	failed
MIPLSPDTLLAARLLAEGDLAGALRAAQAGLQAEPGNAPLWNLLGVCAARLGQAALAEQCWRQALSLDPATPDAHYNLGCLASERDDAAAADAHYRAELARDPDHCSSLGNLGNLLQDAGRLDEAETCFRRRLAIQPGAAAHYQLGRLLAERGRNGEAEAQLRACLDETPDDVEALQLLGRLLEERGEAGEAEAMLRRALESAPGHAAAGNNLGLLLMAQRRWDEAESPLRAAHAAQPGAALPNLASLLLATGRAAEAETLARQALAAEPGRADWLNLLGLALREQGRDEEAGLAWEQGLASVPDHRRLRQNLGYLQLARGDWAAGWAHHEARLESAVYPALPSPRWQGESLAGRRLLVLFEQGYGDAIQFSRYLNPLLEQGAARVVALCREPLSPLFSRQWPQVAWLAMGSGYPAAFPPHDCHVFSMSLPWALRDFEPRAETYLQADPALRQAWRARLPPGRNIGLVWRRPAPSTRSTIAVPCRGRRLCCRCWPIPAPTGFRCSRSRPMSNANGCSNMAWRSGVPNWGISPTARRCWRNWTAWWPWTPRWRTWRARWACLAGCCWPASMWTGAGDGMAKRRRGTTRFVCSAKGAARDGARRSPGCERRNAQRSRLPGCISRSRSDGCLMLRIRK	failed
MIPPELDMSLLLEFIGANEGTGHFKPLEKKFVRVSGEATIGHVEKFLRRKMGLDPACQVDIICGDHLLEQYQTLREIRRAIGDAAMQDGLLVLHYGLVVSP	not failed
MIPTHLPILQVVVPLMAAPVCILLRRPGLCWAWALLIALTTLTMAVGLLAGVLTHGPSAYHLGDWSPPWGIELHVDLLSALVLVLVTATASLVIVYARASFAAEIDPGHHTLAYCLFLLCLTGLLGMAITGDAFNLFVFLEISSLSSYALVALGRDRRALYAAYHYLILGTVGATFYVIGIGFLYMMTGTLNMNDLAQRLPAVAHSRTAVAGVVFLGVGLSLKLALFPLHKWLPAAYSYAPSAVGAFLAATSTKVAFYVMVRLFLGVLAPAFSANLLPGPVSAREMVMVLALAAILSGSFSAIFQSDAKRLLAYSSVSQIGVMVLGLSLFSLDGVAGGLVHMLNHALIKASLFMALGCVFLRIGSVEIADMAGIGRRMPWTMAAFVIGGLSLIGIPGTAGFISKWQLAQSAIAEGWWLAVAALIASSLLAVVYVGKVIEAAYFRPSPAESPSGAPSAPQEAPAMMLAPLWIAALANIGFGLNTTWTLGLAKRAASALMGLPS	failed
